In patent US20100279383A1:
“And” between values parts separate entries of the source, which are not always exact repeats. Equal entries are not always repeated.

Biological target: anti-Savinase antibody
Test: ELISA, anti-Savinase antibody binding of the variant against Savinase as reference

| Substance | Antibody binding capacity shown as Delta-binding |
| --- | --- |
| Savinase variant D181N (from UniProt P29600 1-269) (enzyme) | 2.9 fold |
| Savinase variant E136R (from UniProt P29600 1-269) (enzyme) | 2.8 fold |
| Savinase variant E136R + N140D (from UniProt P29600 1-269) (enzyme) | 2.1 fold |
| Savinase variant N18D (from UniProt P29600 1-269) (enzyme) | 2 fold |
| Savinase variant N140D + A172D (from UniProt P29600 1-269) (enzyme) | 3.8 fold |
| Savinase variant R170F (from UniProt P29600 1-269) (enzyme) | 2.4 fold |
| Savinase variant R170L + Q206E (from UniProt P29600 1-269) (enzyme) | 2.1 fold |
| Savinase variant R247E (from UniProt P29600 1-269) (enzyme) | 2 fold |
| Savinase variant R247H (from UniProt P29600 1-269) (enzyme) | 2 fold |
| Savinase variant R247K (from UniProt P29600 1-269) (enzyme) | 2 fold |
| Savinase variant R247Q (from UniProt P29600 1-269) (enzyme) | 2 fold |
| Savinase variant R275E (from UniProt P29600 1-269) (enzyme) | 2 fold |
| Savinase variant S57P + R170L (from UniProt P29600 1-269) (enzyme) | 2.1 fold |
| Savinase variant S57P + R170L + R247Q (from UniProt P29600 1-269) (enzyme) | 2.1 fold and 2 fold |
| Savinase variant S57P + Y167F + R247Q (from UniProt P29600 1-269) (enzyme) | 3 fold |
| Savinase variant Y167I + R170L + A194P + N218S (from UniProt P29600 1-269) (enzyme) | 3.2 fold |
| Savinase variant Y167I + R170L + N218S (from UniProt P29600 1-269) (enzyme) | 4.8 fold |
